The target of this assay is photosynthetic reaction center from Rhodobacter sphaeroides, native (strain R26) (Rhodobacter sphaeroides) (UniProt P0C0Y8). Description: flash absorption spectroscopy.

“cytochrome c2 from Rhodobacter sphaeroides (from UniProt P0C0X8 1-124) (natural protein)” yielded a dH of 54 meV.
